Reference: PMC9584538 (Cell reports, 2022)
Values joined by “and” are separate entries in the source; they are usually repeats but may differ in a detail not shown here. Equal values may be shown once. Read-outs that look alike come from different tables or passages of the source.

Columns and labels:
[1] = target: Casein fluorescein isothiocyanate from bovine milk (FITC-casein) (bovine); assay: fluorescence polarisation
[2] = target: Casein fluorescein isothiocyanate from bovine milk (FITC-casein) (bovine); assay: fluorescence polarisation; remark: listed apart in the source
[3] = target: Casein fluorescein isothiocyanate from bovine milk (FITC-casein) (bovine); assay: fluorescence polarisation; remark: listed apart in the source
[4] = target: the molecule itself

Sequence of Casein fluorescein isothiocyanate from bovine milk (FITC-casein) (bovine) (P02662 16-214): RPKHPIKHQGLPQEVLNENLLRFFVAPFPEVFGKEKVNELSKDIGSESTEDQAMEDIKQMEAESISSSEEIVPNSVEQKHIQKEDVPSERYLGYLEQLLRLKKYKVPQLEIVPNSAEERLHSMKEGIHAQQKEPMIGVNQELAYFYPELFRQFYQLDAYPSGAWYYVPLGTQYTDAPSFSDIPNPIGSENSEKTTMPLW

Binder | Kd [1] [µM] | Kd [2] [µM] | Kd [3] [µM] | stoichiometry N [4]
PARL-protease-activated Skd3 (human CLPB), wild type (enzyme) YSKSPSNKDAALLEAARANNMQEVSRLLSEGADVNAKHRLGWTALMVAAINRNNSVVQVLLAAGADPNLGDDFSSVYKTAKEQGIHSLEDGGQDGASRHITNQWTSALEFRRWLGLPAGVLITREDDFNNRLNNRASFKGCTALHYAVLADDYRTVKELLDGGANPLQRNEMGHTPLDYAREGEVMKLLRTSEAKYQEKQRKREAEERRRFPLEQRLKEHIIGQESAIATVGAAIRRKENGWYDEEHPLVFLFLGSSGIGKTELAKQTAKYMHKDAKKGFIRLDMSEFQERHEVAKFIGSPPGYVGHEEGGQLTKKLKQCPNAVVLFDEVDKAHPDVLTIMLQLFDEGRLTDGKGKTIDCKDAIFIMTSNVASDEIAQHALQLRQEALEMSRNRIAENLGDVQISDKITISKNFKENVIRPILKAHFRRDEFLGRINEIVYFLPFCHSELIQLVNKELNFWAKRAKQRHNITLLWDREVADVLVDGYNVHYGARSIKHEVERRVVNQLAAAYEQDLLPGGCTLRITVEDSDKQLLKSPELPSPQAEKRLPKLRLEIIDKDSKTRRLDIRAPLHPEKVCNTI | 0.4 | 0.1 | 0.5 | 
_(PARL)Skd3^ΔL660-I707 (lacking the CTD) (enzyme, human, UniProt Q9H078 127-707, looked up) YSKSPSNKDAALLEAARANNMQEVSRLLSEGADVNAKHRLGWTALMVAAINRNNSVVQVLLAAGADPNLGDDFSSVYKTAKEQGIHSLEDGGQDGASRHITNQWTSALEFRRWLGLPAGVLITREDDFNNRLNNRASFKGCTALHYAVLADDYRTVKELLDGGANPLQRNEMGHTPLDYAREGEVMKLLRTSEAKYQEKQRKREAEERRRFPLEQRLKEHIIGQESAIATVGAAIRRKENGWYDEEHPLVFLFLGSSGIGKTELAKQTAKYMHKDAKKGFIRLDMSEFQERHEVAKFIGSPPGYVGHEEGGQLTKKLKQCPNAVVLFDEVDKAHPDVLTIMLQLFDEGRLTDGKGKTIDCKDAIFIMTSNVASDEIAQHALQLRQEALEMSRNRIAENLGDVQISDKITISKNFKENVIRPILKAHFRRDEFLGRINEIVYFLPFCHSELIQLVNKELNFWAKRAKQRHNITLLWDREVADVLVDGYNVHYGARSIKHEVERRVVNQLAAAYEQDLLPGGCTLRITVEDSDKQ |  |  |  | 6 and 12
